What was measured:
[1] = target: human BTLA, endogenous protein of peripheral blood B and T cells of healthy donors (human, UniProt Q7Z6A9 31-289); assay: cell-based or functional assay
[2] = target: T1, cynomolgus BTLA expressed on CHO cells (cynomolgus, UniProt A0A2K5W7M7 31-289); assay: flow cytometry on CHO cells expressing cynomolgus BTLA, PE-anti-huFc detection
T1 construct: whole, on cells; also called cyno BTLA; CHO cells expressing cynomolgus BTLA
T1 sequence: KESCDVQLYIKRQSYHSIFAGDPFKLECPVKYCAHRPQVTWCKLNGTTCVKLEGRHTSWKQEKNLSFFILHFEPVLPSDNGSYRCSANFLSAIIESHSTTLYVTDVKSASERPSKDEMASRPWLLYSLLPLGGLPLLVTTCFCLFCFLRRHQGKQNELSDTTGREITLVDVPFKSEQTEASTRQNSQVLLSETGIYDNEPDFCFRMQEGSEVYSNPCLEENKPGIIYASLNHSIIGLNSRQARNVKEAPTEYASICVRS

[3] = target: T2, human BTLA (analyte of the BIAcore measurements) (human, UniProt Q7Z6A9 31-156, limits assumed); assay: BIAcore surface plasmon resonance
T2 sequence: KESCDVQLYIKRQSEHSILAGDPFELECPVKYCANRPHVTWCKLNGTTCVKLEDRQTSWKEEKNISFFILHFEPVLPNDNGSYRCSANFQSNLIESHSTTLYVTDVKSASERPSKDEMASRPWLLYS

[4] = target: T2, human BTLA (analyte of the BIAcore …); assay: BIAcore
[5] = target: T2, human BTLA (analyte of the BIAcore …); assay: BIAcore, antibody captured on an anti-CH1 chip
Source text: For BIAcore, the test antibodies were captured on an anti-CH1 chip.

B1: hu Mab8D5 Fab' fragment (Fab, V domains shown)
VH: EVQLVESGGGLVQPGGSLRLSCAASGFTISSYDMHWVRQATGKGLEWVSVIGPAGDTYYPGSVKGRFTISRENAKNSLYLQMNSLRAGDTAVYYCAREGMAAHNYYGMDVWGQGTTVTVSS
VL: not shown
- relative potency of the Fab′ against the full Mab [1]: ~10 fold less

B2: hu Mab8D5 G1 (IgG1 version of 8D5) (antibody, V domains shown)
VH: B1 VH
VL: not shown
notes: same variable regions as hu Mab8D5; also called IgG1 version of hu Mab8D5; 8D5 IgG1 Mab
- EC50 [2]: ~0.012 µM

B3: hu Mab8D5 (IgG4 version of 8D5, fully human monoclonal agonist anti-BTLA antibody) (antibody, V domains shown)
VH: B1 VH
VL: not shown
notes: Rest: human IgG4/kappa; Re-expressed in CHO-S cells; also called hu Mab8D5 G4; 8D5 (G4) agonist
- Kd [3]: ~0.002 µM
- koff [4]: 0.000137 s⁻¹
- kon [4]: 45800 M⁻¹ s⁻¹
- EC50 [2]: ~0.012 µM
- koff [5]: 0.00019 s⁻¹
- kon [5]: 79000 M⁻¹ s⁻¹

— US20160222114A1 (published 2016)
